Test [1] deals with T1, SARS-CoV-2受体结合区RBD-His蛋白 (SARS-CoV-2, UniProt P0DTC2 316-550).
T1 construct: range 316-550
The experiment in a line: indirect ELISA, RBD-His coated at 2 μg/mL, HRP goat anti-human IgG. Background: In an ELISA, binding on a coated surface is turned into a signal by an enzyme label.

In a further test the target is T2, SARS-CoV-2受体结合区RBD-mFc (SARS-CoV-2, UniProt P0DTC2 319-541).
T2 construct: domain: 受体结合区RBD
The test can be described thus: indirect ELISA, RBD-mFc coated at 2 μg/mL, HRP goat anti-rabbit IgG.

The target in test [2] is T1, SARS-CoV-2受体结合区RBD-His蛋白.
For test [3], the target named is SARS-CoV-2 Sde18截短蛋白 (假病毒SARS-CoV2 VSVpp所携带) (SARS-CoV-2, UniProt P0DTC2 14-1255). The test can be described thus: cell-based or functional assay.

B1: 3F4人源化抗体 (VH SEQ ID NO:15 + VL SEQ ID NO:19) (antibody, V domains shown)
VH: EVQLVESGGGLVQPGGSLRLSCAASGFSLSSYWMSWVRQAPGKGLEWVSIIFTGGSTYYASWAKGRFTISRHNSKNTLYLQMNSLRAEDTAVYYCARTSYYDVSGWGVGRLDLWGQGTLVTVSS
VL: DIQMTQSPSTLSASVGDRVTITCQSSQSVYDNNWLGWYQQKPGKAPKLLIYSASTLASGVPSRFSGSGSGTEFTLTISSLQPDDFATYYCAGGYSGNIFAFGQGTKLEILR
As for B1, the binding result with SARS-CoV-2受体结合区RBD-His蛋白 [1] is recorded as “binds”.

B2: 3F4人源化抗体 (VH SEQ ID NO:18 + VL SEQ ID NO:19) (antibody, V domains shown)
VH: EVQLVESGGGLVQPGGSLRLSCTVSGFSLSSYWMSWVRQAPGKGLEWVSIIFTGGSTYYASWAKGRFTISRHNSKNTLYLQMNSLRAEDTAVYYCARTSYYDVSGWGVGRLDLWGQGTLVTVSS
VL: DIQMTQSPSTLSASVGDRVTITCQSSQSVYDNNWLGWYQQKPGKAPKLLIYSASTLASGVPSRFSGSGSGTEFTLTISSLQPDDFATYYCAGGYSGNIFAFGQGTKLEILR
For the molecule B2, the binding result in the test with SARS-CoV-2受体结合区RBD-His蛋白 [1] was “binds”.

B3: 3F4人源化抗体 (VH SEQ ID NO:17 + VL SEQ ID NO:19) (antibody, V domains shown)
VH: EVQLVESGGGLVQPGGSLRLSCAASGFSLSSYWMSWVRQAPGKGLEWVSIIFTGGSTYYASWAKGRFTISRHNSKNTLYLQMNSLRAEDTATYFCARTSYYDVSGWGVGRLDLWGQGTLVTVSS
VL: DIQMTQSPSTLSASVGDRVTITCQSSQSVYDNNWLGWYQQKPGKAPKLLIYSASTLASGVPSRFSGSGSGTEFTLTISSLQPDDFATYYCAGGYSGNIFAFGQGTKLEILR
Regarding B3, the binding result in the test with SARS-CoV-2受体结合区RBD-His蛋白 [1] is given as “binds”.

B4: 3F4人源化抗体 (VH SEQ ID NO:16 + VL SEQ ID NO:19) (antibody, V domains shown)
VH: EVQLVESGGGLVQPGGSLRLSCAASGFSLSSYWMSWVRQAPGKGLEWIGIIFTGGSTYYASWAKGRFTISRHNSKNTLYLQMNSLRAEDTAVYYCARTSYYDVSGWGVGRLDLWGQGTLVTVSS
VL: DIQMTQSPSTLSASVGDRVTITCQSSQSVYDNNWLGWYQQKPGKAPKLLIYSASTLASGVPSRFSGSGSGTEFTLTISSLQPDDFATYYCAGGYSGNIFAFGQGTKLEILR
B4: the binding result in the test with SARS-CoV-2受体结合区RBD-His蛋白 [1] was “binds”.

B5: 兔源单克隆抗体3F4 (antibody, V domains shown)
VH: QSVKESGGRLVTPGTPLTLTCTVSGFSLSSYWMSWVRQAPGKGLEWIGIIFTGGSTYYASWAKGRFTISKTSTTVDLKITSPTTEDTATYFCARTSYYDVSGWGVGRLDLWGQGTLVTVSS
VL: DPMLTQTASSVSAAVGGTVTISCQSSQSVYDNNWLGWYQQKPGQPPKLLIYSASTLASGVPSRFKGSGSGTQFTLTISDLECDDAATYYCAGGYSGNIFAFGGGTELEIL
notes: also called r3F4
The term EC50 denotes the concentration at which the effect is half-maximal. By Kd is commonly meant the constant that tells how readily two partners part at equilibrium. High values mean a looser complex, low ones a tighter complex. B5: in the test with SARS-CoV-2受体结合区RBD-mFc, the EC50 stood at 14.4 ng/mL. In addition, the Kd with SARS-CoV-2受体结合区RBD-His蛋白 [2] stood at 8.79 nM. In addition, the “IC50 (SARS-CoV2 VSVpp假病毒感染模型中和, BHK21-hACE2细胞)” value in test [3] was 1.95 ng/mL.

The values above are taken from patent publication CN113583115A (YANG SHENG TANG CO LTD; UNIV XIAMEN, dated 2021).
